B1: NRCoV2-11 VHH-Fc (Fc fusion)
chain: EVQLVSSGGGLVQPGGSLRLSCAASGSSLDSYSVSWFRQAPGKEREWISFISRYYSSTYYTDSVKGRFTTSRDGDQKTVHLQMNSLKPEDTAVYYCAARSRDFSSPFSATDTYTSWGQGTQVTVSS
notes: bivalent VHH-Fc
B2: NRCoV2-14 VHH (VHH)
VHH: EVQLVSSGGGLVQAGGSLRLSCEASGTTFSHYAVGWYRQAPGKQREWVASISVFGSTTYGGSVAGRFTISRDNDKNTVDLQMNSLKPEDTAVYYCHAVNADIGGDYWGQGTQVTVSS
B3: NRCoV2-10 VHH (VHH)
VHH: QLQLQESGGGLVQPGGSLTLSCAASGNTFSRSNMHWYRQAPGAQREWVAAISSRGISTYAYSAKGRFTISRDNAKNTVSLQMNSLKPEDTAVYYCYAADDLGDYWGQGTQVTVSS
B4: NRCoV2-20 VHH-Fc (Fc fusion)
chain: EVQLQQSGGGLVQPGGSLRLSCAASGRTFSNYVVGWFRQAPQAPGKDHEFVAVISGSDTETYYADSVKGRFTISRDNAKNTVYLQMNSLKPEDTAVYYCAADRGMSYYYTRATEYYYWGQGTQVTVSS
notes: bivalent VHH-Fc
B5: NRCoV2-06 VHH (VHH)
VHH: EVQLVQSGGGLVQAGESLRLSCAASVSTFSSYAMGWYRQAPGKQRELVASIGFVGATYYIDSVKGRFTISRDNAKKTAYLQMNDLKPDDTAVYYCNARHYGGSEYWGQGTQVTVSS
B6: NRCoV2-MRed04 VHH-Fc (Fc fusion)
chain: EVQLVESGGGLVQPGRSLRLSCAASGNSFSISTMGWFRQAPGKERELVASIWSDTTTSYADSVKGRFTISTDNTRTKVYLQMSSLNPEDTAVYYCAADRGFVVRGQYDYWGQGTQVTVSS
notes: bivalent VHH-Fc
B7: NRCoV2-SR13 VHH-Fc (Fc fusion)
chain: EVQLVESGGGLVTTGGSLRLSCATSGSRFGSKHMAWYRQAPGKQRDLVAAISSGGSTHYGSSVKGRFTISRDNAKSTVYLQMNSLNPEDTAVFYCNMGGWDYRSNTYIPGSRSDYWGQGTQVTVSS
notes: bivalent VHH-Fc
B8: NRCoV2-07 VHH-Fc (Fc fusion)
chain: QVQLVQSGGGLVQPGGSLRLSCAASGVTLDYYAIGWFRQAPGKEREAVSCISSNGRRNHYVASVRGRFTISRDNAKSTVYLQMNSLKPEDTAVYYCAAVQDVHGDNYYCTSPNEYNVWGQGTQVTVSS
notes: bivalent VHH-Fc
B9: NRCoV2-07 VHH (VHH)
VHH: B8 chain
B10: NRCoV2-1d VHH-Fc (Fc fusion)
chain: EVQLVESGGGSVQPGGSLRLSCAASGSTLDYYAIGWFRQAPGKEREWVSSVSSSDGNTLYADSVKGRFTISRDNAKNTVYLQMNSLKAEDTAVYVCAADYSMRPFAVGRWHRDYEYWGQGTQVTVSS
notes: bivalent VHH-Fc
B11: NRCoV2-04 VHH (VHH)
VHH: AVQLVDSGGGLVQPGGSLRLSCAASGSPFSNVVMAWYRQAPGKQRERVAFISGGGIADYIMSVKGRFTISRDNAKNTVYLQMNSLKPEDTAVYYCWSSYESTWGQGTQVTVSS
B12: NRCoV2-05 VHH (VHH)
VHH: EVKLVQSGGGLVQPGGSLRLSCAASGFIFSNYAMNWVRQAPGKGLEWVSGINSGGGDTRYADSVKGRFTVSRDNAKNTLYLQMNSLKPEDTGVYYCSKGPVSSYYGSGYDYRGQGTQVTVSS
B13: NRCoV2-15 VHH (VHH)
VHH: EVQLVSSGGGLVEAGGSLRLSCIASGSTSGRNTMGWFRQAPGKQREWVAIVSTSGATNYAGSVKGRFTLSRDNAKNAVYLQMNNLKPEDTAVYYCYAAYGGGGDYWGQGTQVTVSS
B14: NRCoV2-SR01 VHH-Fc (Fc fusion)
chain: EVQLVQSGGGSVQAGGSLRLSCVASGFTFDNYAIGWFRQAPGKEREGVSCISGNGGVTIYADSVKGRFTISRDNAKNLVYLQMNSLKPEDTAVYYCAATGIRSTWSVYGCSRLAGPYDYWGQGTQVTVSS
notes: bivalent VHH-Fc
B15: NRCoV2-SR02 VHH-Fc (Fc fusion)
chain: EVQLVDSGGGLVQAGGSLRLSCTASEFTLNYYSIGWFRQSPGKEREGVSCIRYSGGGIDYADSVKGRFTISRDNAKNTVYLTMNSLKPEDTAVYYCAADRLYSRACPTAGGRNYWGQGTQVTVSS
notes: bivalent VHH-Fc
B16: NRCoV2-18 VHH-Fc (Fc fusion)
chain: EVQLVESGGGLVQAGGSLRLSCVASGITISGYNMAWWRQTRGKQTERVAFINSGGSTTYSDSVKGRFTISRDNGKNTAYLQMNSLNAEDTADYFCSLHTSHDYWGQGTQVTVSS
notes: bivalent VHH-Fc

What was measured:
[1] = molecular target: T1, SARS-CoV-2 S on CHO-S cells (SARS-CoV-2, UniProt P0DTC2 14-1273); experiment: flow cytometry, CHO-S cells
T1 construct: whole, on cells

[2] = molecular target: T2, SARS-CoV-2 S2 (aa686-1208) (Wuhan) (SARS-CoV-2 Wuhan, UniProt P0DTC2 686-1208); experiment: ELISA
T2 construct: NRC; FLAG, 6xHis tags

[3] = molecular target: SARS-CoV-2 S1-NTD (aa16-305) (SARS-CoV-2 Wuhan, UniProt P0DTC2 16-305); experiment: ELISA
[4] = molecular target: T3, SARS-CoV-2 S1 (aa16-685) (Wuhan) (SARS-CoV-2 Wuhan, UniProt P0DTC2 16-685); experiment: SPR, antigen on chip
T3 construct: NRC; FLAG, 6xHis tags

[5] = molecular target: T2, SARS-CoV-2 S2 (aa686-1208) (Wuhan); experiment: SPR, antigen on chip
[6] = molecular target: SARS-CoV-2 S1-RBD fused to human Fc (S1-RBD-Fc) (SARS-CoV-2 Wuhan; human); experiment: SPR, antigen on chip
[7] = molecular target: T4, SARS-CoV-2 spike trimer S (Wuhan, SmT1) (SARS-CoV-2 Wuhan); experiment: SPR, antigen on chip
T4 construct: extracellular domain

Row | Binder | Bmax [1] | EC50 [1] [nM] | binding result [2] | binding result [3] | Kd [4] [nM] | koff [4] [s⁻¹] | kon [4] [M⁻¹ s⁻¹] | binding result [5] | Kd [6] [nM] | koff [6] [s⁻¹] | kon [6] [M⁻¹ s⁻¹] | Kd [7] [nM] | koff [7] [s⁻¹] | kon [7] [M⁻¹ s⁻¹]
1 | B1 | 18200 | 4.3 | no binding (tested: 13 nM) | no binding (tested: 13 nM) |  |  |  |  |  |  |  |  |  | 
2 | B2 |  |  |  |  | 3.49 | 0.00112 | 319000 | no binding | 3.61 | 0.000944 | 261000 | 3.1 | 0.00164 | 528000
3 | B3 |  |  |  |  | 0.213 | 9.54e-05 | 448000 | no binding | 0.266 | 9.32e-05 | 351000 | 0.192 | 9.27e-05 | 483000
4 | B4 | 12100 | 0.7 | no binding (tested: 13 nM) | no binding (tested: 13 nM) |  |  |  |  |  |  |  |  |  | 
5 | B5 |  |  |  |  | 129 | 0.0133 | 104000 | no binding | 69.9 | 0.00415 | 59400 | 155 | 0.00469 | 30200
6 | B6 | 14900 | 4.2 | no binding (tested: 13 nM) | no binding (tested: 13 nM) |  |  |  |  |  |  |  |  |  | 
7 | B7 | 17800 | 7 | no binding (tested: 13 nM) |  |  |  |  |  |  |  |  |  |  | 
8 | B8 | 10600 | 1.1 | no binding (tested: 13 nM) | no binding (tested: 13 nM) |  |  |  |  |  |  |  |  |  | 
9 | B9 |  |  |  |  | 1.02 | 0.000308 | 301000 | no binding | 0.894 | 0.000284 | 318000 | 1.15 | 0.000403 | 350000
10 | B10 | 13800 | 1.1 | no binding (tested: 13 nM) | no binding (tested: 13 nM) |  |  |  |  |  |  |  |  |  | 
11 | B11 |  |  |  |  | 11.2 | 0.018 | 1.61e+06 | no binding | 12.5 | 0.0192 | 1.53e+06 | 10 | 0.0198 | 1.97e+06
12 | B12 |  |  |  |  | 2 | 0.00806 | 4.03e+06 | no binding | 2.33 | 0.00585 | 2.51e+06 | 1.72 | 0.00743 | 4.33e+06
13 | B13 |  |  |  |  | 0.333 | 0.000225 | 675000 | no binding | 0.342 | 0.000233 | 682000 | 0.313 | 0.000221 | 706000
14 | B14 | 15400 | 6.6 | no binding (tested: 13 nM) |  |  |  |  |  |  |  |  |  |  | 
15 | B15 | 14400 | 1.2 | no binding (tested: 13 nM) |  |  |  |  |  |  |  |  |  |  | 
16 | B16 | 18300 | 0.9 | no binding (tested: 13 nM) | no binding (tested: 13 nM) |  |  |  |  |  |  |  |  |  | 
